B1: ZNF193 (parent)
chain: QCIECGKSFNRHCNLIRHQKIHTV

Variants of: B1
Experiment: protein stability index of a GFP-peptide fusion (GPS, HEK-293T) (PSI 1-6); higher = more stable
Details: c terminus: a fixed tail appended
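Note: lentivirally expressed fusions sorted by FACS into six bins by GFP to DsRed ratio, PSI derived from sequencing read proportions per bin multiplied by bin number.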

| Variant | protein stability index |
| --- | --- |
| QCIECYKSFNRHCNLIRHQKIHTV [G6Y] | 2.17 |
| QCIECNKSFNRHCNLIRHQKIHTV [G6N] | 2.38 |
| QCIECEKSFNRHCNLIRHQKIHTV [G6E] | 2.84 |
| QCIECPKSFNRHCNLIRHQKIHTV [G6P] | 2.18 |
| QCIECWKSFNRHCNLIRHQKIHTV [G6W] | 1.5 |
| QCIECMKSFNRHCNLIRHQKIHTV [G6M] | 2.11 |
| QCIECDKSFNRHCNLIRHQKIHTV [G6D] | 2.62 |
| QCIECGKSFTRHCNLIRHQKIHTV [N10T] | 4.08 |
| QCIECGKSFFRHCNLIRHQKIHTV [N10F] | 3.02 |
| QCIECGKSFMRHCNLIRHQKIHTV [N10M] | 3.14 |
| QCIECGKSFARHCNLIRHQKIHTV [N10A] | 3.54 |
| QCIECGKSFIRHCNLIRHQKIHTV [N10I] | 3.28 |
| QCIECGKSFYRHCNLIRHQKIHTV [N10Y] | 2.98 |
| QCIECGKSFGRHCNLIRHQKIHTV [N10G] | 3.29 |
| QCIECGKSFSRHCNLIRHQKIHTV [N10S] | 3.48 |
| QCIECGKSFNAHCNLIRHQKIHTV [R11A] | 3.38 |
| QCIECGKSFNFHCNLIRHQKIHTV [R11F] | 3.07 |
| QCIECGKSFNQHCNLIRHQKIHTV [R11Q] | 2.96 |
| QCIECGKSFNWHCNLIRHQKIHTV [R11W] | 2.62 |
| QCIECGKSFNSHCNLIRHQKIHTV [R11S] | 4.1 |
| QCIECGKSFNRHCNLIRHQKIHTI [V24I] | 2.8 |
| QCIECGKSFNRHCNLIRHQKIHTT [V24T] | 3.84 |
| QCIECGKSFNRHCNLIRHQKIHTP [V24P] | 4.21 |
| QCIECGKSFNRHCNLIRHQKIHTN [V24N] | 4.22 |

| Variant | protein stability index |
| --- | --- |
| QCIECGKSFNRHCNLIRHQKIHTR [V24R] | 3.83 |
| QCIECGKSFNRHCNLIRHQKIHTA [V24A] | 4.26 |
| QCIECGKSFNRHCNLIRHQKIHTH [V24H] | 3.83 |
| QCIECGKSFNRHCNLIRHQKIHTS [V24S] | 4.21 |
| QCIECGKSFNRHCNLIRHQKIHTW [V24W] | 2.75 |
| QCIECGKSFNRHCNLIRHQKIHTD [V24D] | 3.83 |
| QCIECGKSFNRHCNLIRHQDIHTV [K20D] | 2.83 |
| QCIECGKSFNRHCNLIRHQTIHTV [K20T] | 2.63 |
| QCIECGKSFNRHCNLIRHQVIHTV [K20V] | 2.66 |
| QCIECGKSFNRHCNLIRHQYIHTV [K20Y] | 2.2 |
| QCIECGKSFNRHCNLIRHQAIHTV [K20A] | 3.85 |
| QCIECGKSFNRHCNLIRHQFIHTV [K20F] | 2.95 |
| QCIECGKSFNRHCNLIRHQRIHTV [K20R] | 3.4 |
| QCIICGKSFNRHCNLIRHQKIHTV [E4I] | 3.54 |
| QCIGCGKSFNRHCNLIRHQKIHTV [E4G] | 2.04 |
| QCIWCGKSFNRHCNLIRHQKIHTV [E4W] | 3.85 |
| QCIMCGKSFNRHCNLIRHQKIHTV [E4M] | 3.1 |
| QCITCGKSFNRHCNLIRHQKIHTV [E4T] | 3.42 |
| QCIRCGKSFNRHCNLIRHQKIHTV [E4R] | 3.71 |
| QCIACGKSFNRHCNLIRHQKIHTV [E4A] | 3.12 |
| QCIDCGKSFNRHCNLIRHQKIHTV [E4D] | 2.78 |
| QCILCGKSFNRHCNLIRHQKIHTV [E4L] | 2.66 |
| QCIECGKSFNRHCALIRHQKIHTV [N14A] | 3.9 |
| QCIECGKSFNRHCLLIRHQKIHTV [N14L] | 3.11 |

| Variant | protein stability index |
| --- | --- |
| QCIECGKSFNRHCILIRHQKIHTV [N14I] | 2.6 |
| QCIECGKSFNRHCELIRHQKIHTV [N14E] | 3.94 |
| QCIECGKSFNRHCRLIRHQKIHTV [N14R] | 3.12 |
| QCIECGKSFNRHCYLIRHQKIHTV [N14Y] | 2.33 |
| QCIECGKSFNRHCMLIRHQKIHTV [N14M] | 3.5 |
| QDIECGKSFNRHCNLIRHQKIHTV [C2D] | 2.41 |
| QNIECGKSFNRHCNLIRHQKIHTV [C2N] | 2.45 |
| QFIECGKSFNRHCNLIRHQKIHTV [C2F] | 1.07 |
| QVIECGKSFNRHCNLIRHQKIHTV [C2V] | 2.73 |
| QSIECGKSFNRHCNLIRHQKIHTV [C2S] | 1.81 |
| QKIECGKSFNRHCNLIRHQKIHTV [C2K] | 1.95 |
| QRIECGKSFNRHCNLIRHQKIHTV [C2R] | 1.72 |
| QYIECGKSFNRHCNLIRHQKIHTV [C2Y] | 2.03 |
| QMIECGKSFNRHCNLIRHQKIHTV [C2M] | 1.71 |
| QIIECGKSFNRHCNLIRHQKIHTV [C2I] | 2.06 |
| QHIECGKSFNRHCNLIRHQKIHTV [C2H] | 1.6 |
| QCIECGKSENRHCNLIRHQKIHTV [F9E] | 2.93 |
| QCIECGKSANRHCNLIRHQKIHTV [F9A] | 2.24 |
| QCIECGKSINRHCNLIRHQKIHTV [F9I] | 2.13 |
| QCIECGKSPNRHCNLIRHQKIHTV [F9P] | 3.25 |
| QCIECGKSMNRHCNLIRHQKIHTV [F9M] | 2.51 |
| QCIECGKSCNRHCNLIRHQKIHTV [F9C] | 3.47 |
| QCIECGKSTNRHCNLIRHQKIHTV [F9T] | 2.59 |
| QCIECGKSFNRHCNLIRHQKICTV [H22C] | 4.83 |

| Variant | protein stability index |
| --- | --- |
| QCIECGKSFNRHCNLIRHQKIYTV [H22Y] | 1.56 |
| QCIECGKSFNRHCNLIRHQKILTV [H22L] | 2.88 |
| QCIECGKSFNRHCNLIRHQKIITV [H22I] | 2.25 |
| QCIECGKSFNRHCNLIRHQKITTV [H22T] | 2.11 |
| QCIECGKSFNRHCNLIRHQKISTV [H22S] | 2.45 |
| QCIECGKSFNRHCNLIRHQKIGTV [H22G] | 2.94 |
| QCIECGKSFNRHCNLIRHQKIVTV [H22V] | 2.32 |
| QCIECGKSFNRHCNLIRHQKIATV [H22A] | 2.76 |
| QCIECGKSFNRHCNLIRHQKIQTV [H22Q] | 2.7 |
| HCIECGKSFNRHCNLIRHQKIHTV [Q1H] | 3.36 |
| MCIECGKSFNRHCNLIRHQKIHTV [Q1M] | 3.54 |
| RCIECGKSFNRHCNLIRHQKIHTV [Q1R] | 4.1 |
| TCIECGKSFNRHCNLIRHQKIHTV [Q1T] | 4.04 |
| NCIECGKSFNRHCNLIRHQKIHTV [Q1N] | 2.56 |
| ICIECGKSFNRHCNLIRHQKIHTV [Q1I] | 3.28 |
| DCIECGKSFNRHCNLIRHQKIHTV [Q1D] | 3.5 |
| QCIECGKSFNRHCNQIRHQKIHTV [L15Q] | 2.9 |
| QCIECGKSFNRHCNFIRHQKIHTV [L15F] | 3.32 |
| QCIECGKSFNRHCNNIRHQKIHTV [L15N] | 3.29 |
| QCIECGKSFNRHCNRIRHQKIHTV [L15R] | 3.01 |
| QCIECGKSFNRHCNSIRHQKIHTV [L15S] | 2.62 |
| QCIECGKSFNRHCNKIRHQKIHTV [L15K] | 2.94 |
